B1: HCoV-NL63 nucleocapsid (N) protein, complete (natural protein)
chain: MASVNWADDRAARKKFPPPSFYMPLLVSSDKAPYRVIPRNLVPIGKGNKDEQIGYWNVQERWRMRRGQRVDLPPKVHFYYLGTGPHKDLKFRQRSDGVVWVAKEGAKTVNTSLGNRKRNQKPLEPKFSIALPPELSVVEFEDRSNNSSRASSRSSTRNNSRDSSRSTSRQQSRTRSDSNQSSSDLVAAVTLALKNLGFDNQSKSPSSSGTSTPKKPNKPLSQPRADKPSQLKKPRWKRVPTREENVIQCFGPRDFNHNMGDSDLVQNGVDAKGFPQLAELIPNQAALFFDSEVSTDEVGDNVQITYTYKMLVAKDNKNLPKFIEQISAFTKPSSIKEMQSQSSHVAQNTVLNASIPESKPLADDDSAIIEIVNEVLH
notes: also called WT; complete NL63-N protein; source: E. coli BL21, purified (Ni Sepharose, Resource Q, Superdex S75) to about 80% homogeneity

Tests used:
[1] = target: C-terminal domain of the HCoV-NL63 nucleocapsid protein (HCoV-NL63 (isolate Amsterdam 1)) (UniProt Q6Q1R8); experiment: cross-linking; 50 ug of protein with 0.007% glutaraldehyde, 15 min at room temperature, stopped with Tris, then SDS-PAGE (Coomassie)
[2] = target: C-terminal domain of the HCoV-NL63 nucleocapsid protein (HCoV-NL63 (isolate Amsterdam 1)) (UniProt Q6Q1R8); experiment: SEC; CTD analysed by size exclusion chromatography; two peaks taken as dimer and monomer from retention time and SDS-PAGE; column and buffer not given
[3] = target: the molecule itself; experiment: native MS; ESI mass spectrometry (MicroTOF-QII, positive ionization mode) of samples dialysed into 50 mM NH4HCO3, pH 7.8; masses of monomer and dimer from deconvolved spectra

| Molecule | stoichiometry N [1] | percent of the protein present as dimers [2] | stoichiometry N [2] | stoichiometry N [3] |
| --- | --- | --- | --- | --- |
| C-terminal domain of the HCoV-NL63 nucleocapsid protein (from UniProt Q6Q1R8 221-340) (domain or fragment) | > 2 | 40% | 2 |  |
| B1 |  |  |  | 2 |

— PMC4336326, “The Nucleocapsid Protein of Human Coronavirus NL63” (PLoS ONE, 2015)
